In the Immune Epitope Database (IEDB):

Experiments:
HLA-B*08:01 [1] = assay: IEDB peptide-MHC binding, purified MHC/competitive/radioactivity; filed as Kd, often an IC50 or EC50 that approximates it; ≥ and ≤ were set here for values at or beyond the usual limits of such assays
HLA-B*15:01 [2] = assay: as above; conditions: source organism: Vaccinia virus WR
HLA-A*03:01 [3] = assay: IEDB peptide-MHC binding, purified MHC/direct/fluorescence; filed as Kd, often an IC50 or EC50 that approximates it; ≥ and ≤ were set here for values at or beyond the usual limits of such assays
HLA-B*27:05 = assay: as above
HLA-A*69:01 = assay: as above
HLA-B*58:01 = assay: as above
HLA-A*24:03 = assay: as above
HLA-A*26:01 [4] = assay: as above
HLA-A*31:01 [5] = assay: as above
HLA-B*08:01 [6] = assay: as above
HLA-A*11:01 [7] = assay: as above
HLA-A*02:01 = assay: as above
HLA-B*40:01 = assay: as above
HLA-B*07:02 [8] = assay: as above
HLA-B*15:01 [9] = assay: as above
HLA-B*44:02 = assay: as above
HLA-B*07:02 [10] = assay: IEDB peptide-MHC binding, purified MHC/competitive/radioactivity; filed as Kd, often an IC50 or EC50 that approximates it; ≥ and ≤ were set here for values at or beyond the usual limits of such assays
HLA-A*01:01 [11] = assay: IEDB peptide-MHC binding, purified MHC/direct/fluorescence; filed as Kd, often an IC50 or EC50 that approximates it; ≥ and ≤ were set here for values at or beyond the usual limits of such assays; conditions: source organism: Rickettsia prowazekii
HLA-A*02:06 = assay: IEDB peptide-MHC binding, purified MHC/competitive/radioactivity; filed as Kd, often an IC50 or EC50 that approximates it; ≥ and ≤ were set here for values at or beyond the usual limits of such assays
HLA-A*02:03 = assay: as above
HLA-A*02:02 = assay: as above
HLA-A*24:02 = assay: as above; conditions: source organism: SARS coronavirus Tor2
HLA-A*26:01 [12] = assay: as above; conditions: source organism: SARS coronavirus Tor2
HLA-A*01:01 [13] = assay: as above; conditions: source organism: SARS coronavirus Tor2
HLA-A*23:01 = assay: as above; conditions: source organism: SARS coronavirus Tor2
HLA-A*29:02 = assay: as above; conditions: source organism: SARS coronavirus Tor2
HLA-A*30:02 = assay: as above; conditions: source organism: SARS coronavirus Tor2
HLA-A*03:01 [14] = assay: as above; conditions: source organism: SARS coronavirus Tor2
HLA-A*31:01 [15] = assay: as above; conditions: source organism: SARS coronavirus Tor2
HLA-A*11:01 [16] = assay: as above; conditions: source organism: SARS coronavirus Tor2
HLA-A*33:01 = assay: as above; conditions: source organism: SARS coronavirus Tor2
HLA-A*68:01 = assay: as above; conditions: source organism: SARS coronavirus Tor2
[17] = source organism: Vaccinia virus WR
[18] = source organism: Vaccinia virus Copenhagen
[19] = source organism: Giardia intestinalis
[20] = source organism: Dengue virus 4 Philippines/H241/1956
[21] = source organism: Dengue virus 2 Jamaica/1409/1983
[22] = source organism: Rickettsia prowazekii
[23] = source organism: SARS coronavirus Tor2

**Q.** ANITHFCSF was tested. Which Kd (HLA-B*08:01 [1]; [17]) did it give?
**A.** 10.6 µM

**Q.** What about the Kd (HLA-B*15:01 [2]) of the same sequence?
**A.** 0.015 µM

**Q.** Which Kd (HLA-B*08:01 [1]; source organism: Dengue virus 3 Martinique/1243/1999) does the source give for ERLQRKHGGM here?
**A.** 0.0922 µM

**Q.** FNKGHFTRL was tested. Which Kd (HLA-B*08:01 [1]; [18]) did it give?
**A.** 0.0163 µM

**Q.** Which Kd (HLA-B*08:01 [1]; [17]) does the source give for FVMFGFCYL here?
**A.** 0.865 µM

**Q.** How did the Kd (HLA-A*03:01 [3]; [19]) turn out when GYTPGQQFY was run?
**A.** ≥ 20 µM

**Q.** And the Kd (HLA-B*27:05; [19])?
**A.** ≥ 20 µM

**Q.** And the Kd (HLA-A*69:01; [19])?
**A.** ≥ 20 µM

**Q.** What about the Kd (HLA-B*58:01; [19]) of the same sequence?
**A.** ≥ 20 µM

**Q.** And the Kd (HLA-A*24:03; [19])?
**A.** 5.42 µM

**Q.** And the Kd (HLA-A*26:01 [4]; [19])?
**A.** ≥ 20 µM

**Q.** And the Kd (HLA-A*31:01 [5]; [19])?
**A.** ≥ 20 µM

**Q.** What about the Kd (HLA-B*08:01 [6]; [19]) of the same sequence?
**A.** ≥ 20 µM

**Q.** What about the Kd (HLA-A*11:01 [7]; [19]) of the same sequence?
**A.** ≥ 20 µM

**Q.** What about the Kd (HLA-A*02:01; [19]) of the same sequence?
**A.** ≥ 20 µM

**Q.** What about the Kd (HLA-B*40:01; [19]) of the same sequence?
**A.** ≥ 20 µM

**Q.** And the Kd (HLA-B*07:02 [8]; [19])?
**A.** ≥ 20 µM

**Q.** And the Kd (HLA-B*15:01 [9]; [19])?
**A.** ≥ 20 µM

**Q.** And the Kd (HLA-B*44:02; [19])?
**A.** ≥ 20 µM

**Q.** HAQRIETWIL was tested. Which Kd (HLA-B*08:01 [1]; source organism: Dengue virus 2 Peru/IQT2913/1996) did it give?
**A.** 1.15 µM

**Q.** Which Kd (HLA-B*08:01 [1]; [20]) does the source give for HRRDLRLASM here?
**A.** 0.0112 µM

**Q.** With IKTTAKEVAL as the sequence, how does the Kd (HLA-B*08:01 [1]; [20]) read?
**A.** 4.46 µM

**Q.** For ILCVPNAVIL, which Kd (HLA-B*08:01 [1]; [21]) is on record?
**A.** 5.54 µM

**Q.** ILMDSIFVST was tested. Which Kd (HLA-B*07:02 [10]; [18]) did it give?
**A.** ≥ 69.6 µM

**Q.** Which Kd (HLA-B*08:01 [1]; [20]) does the source give for IQPQWIAASI here?
**A.** 0.858 µM

**Q.** For IYSAEFKNY, which Kd (HLA-A*03:01 [3]; [22]) is on record?
**A.** ≥ 20 µM

**Q.** What about the Kd (HLA-B*27:05; [22]) of the same sequence?
**A.** ≥ 20 µM

**Q.** What about the Kd (HLA-A*69:01; [22]) of the same sequence?
**A.** ≥ 20 µM

**Q.** And the Kd (HLA-B*58:01; [22])?
**A.** ≥ 20 µM

**Q.** And the Kd (HLA-A*24:03; [22])?
**A.** 1.41 µM

**Q.** What about the Kd (HLA-A*26:01 [4]; [22]) of the same sequence?
**A.** ≥ 20 µM

**Q.** What about the Kd (HLA-A*31:01 [5]; [22]) of the same sequence?
**A.** ≥ 20 µM

**Q.** What about the Kd (HLA-B*08:01 [6]; [22]) of the same sequence?
**A.** ≥ 20 µM

**Q.** What about the Kd (HLA-A*11:01 [7]; [22]) of the same sequence?
**A.** ≥ 20 µM

**Q.** And the Kd (HLA-A*02:01; [22])?
**A.** ≥ 20 µM

**Q.** And the Kd (HLA-B*40:01; [22])?
**A.** ≥ 20 µM

**Q.** And the Kd (HLA-A*01:01 [11])?
**A.** ≥ 20 µM

**Q.** What about the Kd (HLA-B*07:02 [8]; [22]) of the same sequence?
**A.** ≥ 20 µM

**Q.** What about the Kd (HLA-B*15:01 [9]; [22]) of the same sequence?
**A.** 20 µM

**Q.** What about the Kd (HLA-B*44:02; [22]) of the same sequence?
**A.** ≥ 20 µM

**Q.** How did the Kd (HLA-A*24:03; source organism: Vibrio parahaemolyticus) turn out when KYLPNGDYI was run?
**A.** 0.0129 µM

**Q.** LHRMDLGVPL was tested. Which Kd (HLA-B*08:01 [1]; [20]) did it give?
**A.** 1.01 µM

**Q.** Which Kd (HLA-B*08:01 [1]; [21]) does the source give for LTIPPTAGIL here?
**A.** 1.1 µM

**Q.** Which Kd (HLA-B*07:02 [10]; [21]) does the source give for LVMKDGRVL here?
**A.** 0.00107 µM

**Q.** For MLKRERNRV, which Kd (HLA-B*08:01 [1]; [21]) is on record?
**A.** 0.0529 µM

**Q.** How did the Kd (HLA-A*02:06; [17]) turn out when NLRCHSAHV was run?
**A.** 8.03 µM

**Q.** What about the Kd (HLA-A*02:03; [17]) of the same sequence?
**A.** 0.011 µM

**Q.** And the Kd (HLA-A*02:02; [17])?
**A.** 0.384 µM

**Q.** And the Kd (HLA-B*08:01 [1]; [17])?
**A.** 0.00124 µM

**Q.** For NMLRIMASL, which Kd (HLA-A*02:06; [23]) is on record?
**A.** 0.05 µM

**Q.** And the Kd (HLA-A*02:03; [23])?
**A.** 0.0375 µM

**Q.** What about the Kd (HLA-A*24:02) of the same sequence?
**A.** ≥ 32.2 µM

**Q.** And the Kd (HLA-A*02:02; [23])?
**A.** 0.0034 µM

**Q.** And the Kd (HLA-A*26:01 [12])?
**A.** 18.2 µM

**Q.** And the Kd (HLA-A*01:01 [13])?
**A.** ≥ 26.3 µM

**Q.** What about the Kd (HLA-A*23:01) of the same sequence?
**A.** 10.9 µM

**Q.** What about the Kd (HLA-A*29:02) of the same sequence?
**A.** ≥ 36.9 µM

**Q.** What about the Kd (HLA-A*30:02) of the same sequence?
**A.** ≥ 100 µM

**Q.** How did the Kd (HLA-A*03:01 [14]) turn out when NTCDGNTFTY was run?
**A.** 0.00225 µM

**Q.** And the Kd (HLA-A*24:02)?
**A.** 5.75 µM

**Q.** And the Kd (HLA-A*26:01 [12])?
**A.** ≥ 77.9 µM

**Q.** What about the Kd (HLA-A*31:01 [15]) of the same sequence?
**A.** 0.0334 µM

**Q.** What about the Kd (HLA-A*11:01 [16]) of the same sequence?
**A.** 0.0236 µM

**Q.** What about the Kd (HLA-A*01:01 [13]) of the same sequence?
**A.** ≥ 89.3 µM

**Q.** What about the Kd (HLA-A*33:01) of the same sequence?
**A.** 13.2 µM

**Q.** What about the Kd (HLA-A*23:01) of the same sequence?
**A.** 5.34 µM

**Q.** What about the Kd (HLA-A*68:01) of the same sequence?
**A.** 1.06 µM

**Q.** What about the Kd (HLA-A*29:02) of the same sequence?
**A.** ≥ 26 µM

**Q.** And the Kd (HLA-A*30:02)?
**A.** ≥ 125 µM
